Data reported in paper PMC12354777 (Nature Communications, 2025).
Residue numbers refer to the chain shown, from its start. Numbers in names are those of the source.

B1: 3D1 mutant Y93A (light chain, CDRL3) (antibody, V domains shown)
VH: QVQLVQSGSELKKPGASVRISCKASGYSFTSLSMNWVRQAPGQGLEWMGWISTKSGDPTYAQAFTGRFVFSLDTSVNTAYLQINSLEAGDTAVYYCARGQPPVGWTFDYWGQGTLVTVSS
VL: QSALTQPPSASGSPGQSVTISCTGTSSDVGGYNYVSWYQQHPGKAPKLIIYEVSKRPSGVPDRFSGSKSGNTASLTVSGLQAEDEADYYCSSATSSSTLVFGGGTKLTVL
B2: 3D1 mutant N35A (heavy chain) (antibody, V domains shown)
VH: B1 VH with N35A
VL: B1 VL with A93Y
B3: 3D1 mutant W105A (heavy chain, CDRH3) (antibody, V domains shown)
VH: B1 VH with W105A
VL: B1 VL with A93Y

Target: T1, HR1C peptide of SARS-CoV-2 (residues 937-955), His6-tagged (SARS-CoV-2, UniProt P0DTC2)
T1 chain: SLSSTASALGKLQDVVNQN
Experiment: BLI

Binder | binding result
B1 | no binding
B2 | no binding
B3 | no binding
